Publication PMC13079917 (Proceedings of the National Academy of Sciences of the …, 2026)

T1: J3 junctional peptide (Plasmodium falciparum (identical to 3D7 …))
T1 construct: also called junctional peptide (J3)
T1 chain: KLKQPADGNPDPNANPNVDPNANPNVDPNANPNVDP


Legend:
Details in all cases: both partners purified
[1] = target: T2, SES-2 (single epitope scaffold 2); experiment: SPR
T2 construct: also called SES-2 scaffold; source: FreeStyle 293F cells, transfected, purified (nickel column, Superdex 200 Increase gel filtration)

[2] = target: TES-1 (triple-epitope scaffold 1) (synthetic de novo design (grafts PfCSP …)); experiment: KinExA (kinetic exclusion assay)
[3] = target: T1, J3 junctional peptide; experiment: ELISA; plates coated with peptide at 2 ug/mL in PBS; antibodies diluted fourfold from 10 ug/mL; peroxidase secondary antibody

Binder | Kd [1] [nM] | Kd [2] [nM] | binding result [3]
L9 Fab (Fab, V domains shown, source: for crystallization: ExpiCHO cells, purified (HiTrap Protein G HP, size exclusion chromatography)) VH: QVKLVESGGGVVQPGRSLRLSCEASGFIFSTYGMHWVRQAPGKGLEWVAVIWFDGSNIYYADSVKGRFTISRDNSKNTVFMQMDSLRAEDTAVYYCHRNFYDGSGPFDYWGQGTLVTVSS VL: DIQMTQSPSTLSASVGDRVTITCRASQFISRWLAWYQQKPGKAPKLLIYKASSLESGVPSRFSGSGSETHFTLTISSLQPDDVATYYCQEYTSYGRTFGQGTKVEIK | 29 | – | –
Monoclonal antibody L9 (human IgG) (antibody, V domains shown) VH: QVKLVESGGGVVQPGRSLRLSCEASGFIFSTYGMHWVRQAPGKGLEWVAVIWFDGSNIYYADSVKGRFTISRDNSKNTVFMQMDSLRAEDTAVYYCHRNFYDGSGPFDYWGQGTLVTVSS VL: DIQMTQSPSTLSASVGDRVTITCRASQFISRWLAWYQQKPGKAPKLLIYKASSLESGVPSRFSGSGSETHFTLTISSLQPDDVATYYCQEYTSYGRTFGQGTKVEIK | – | 0.085 | binds
